Test results taken from PMC5849714, “Direct coupling of detergent purified human mGlu5 receptor to the heterotrimeric G proteins Gq and Gs” (Scientific Reports, 2018).
Numbering of substitutions follows the chain as printed.

B1: SNAP-mGlu5-Δ856 (FLAG-SNAP-tagged human mGlu5 receptor truncated after A856) (receptor, UniProt P41594-2 21-856, looked up)
chain: QSSERRVVAHMPGDIIIGALFSVHHQPTVDKVHERKCGAVREQYGIQRVEAMLHTLERINSDPTLLPNITLGCEIRDSCWHSAVALEQSIEFIRDSLISSEEEEGLVRCVDGSSSSFRSKKPIVGVIGPGSSSVAIQVQNLLQLFNIPQIAYSATSMDLSDKTLFKYFMRVVPSDAQQARAMVDIVKRYNWTYVSAVHTEGNYGESGMEAFKDMSAKEGICIAHSYKIYSNAGEQSFDKLLKKLTSHLPKARVVACFCEGMTVRGLLMAMRRLGLAGEFLLLGSDGWADRYDVTDGYQREAVGGITIKLQSPDVKWFDDYYLKLRPETNHRNPWFQEFWQHRFQCRLEGFPQENSKYNKTCNSSLTLKTHHVQDSKMGFVINAIYSMAYGLHNMQMSLCPGYAGLCDAMKPIDGRKLLESLMKTNFTGVSGDTILFDENGDSPGRYEIMNFKEMGKDYFDYINVGSWDNGELKMDDDEVWSKKSNIIRSVCSEPCEKGQIKVIRKGEVSCCWTCTPCKENEYVFDEYTCKACQLGSWPTDDLTGCDLIPVQYLRWGDPEPIAAVVFACLGLLATLFVTVVFIIYRDTPVVKSSSRELCYIILAGICLGYLCTFCLIAKPKQIYCYLQRIGIGLSPAMSYSALVTKTNRIARILAGSKKKICTKKPRFMSACAQLVIAFILICIQLGIIVALFIMEPPDIMHDYPSIREVYLICNTTNLGVVTPLGYNGLLILSCTFYAFKTRNVPANFNEAKYIAFTMYTTCIIWLAFVPIYFGSNYKIITMCFSVSLSATVALGCMFVPKVYIILAKPERNVRSAFTTSTVVRMHVGDGKSSSAA
modifications: SNAP tag labelled with a cell-impermeant red fluorophore (SNAP-Red)
notes: metabotropic glutamate receptor 5 (mGlu5), human, truncated after A856 by a stop codon; Construct from Cisbio Bioassays; the SNAP tag is extracellular; also called SNAP-Tag C-terminal mGlu5-Δ856 receptor; hmGlu5-ΔCter-A856; source: HEK293, transiently transfected; extracted with MNG3/CHS, not purified; on cells in the cAMP assay
B2: mGlu5-Δ856-eGFP (receptor, human, UniProt P41594-2 21-856, looked up)
chain: B1 chain with N425A
notes: metabotropic glutamate receptor 5 (mGlu5), human, truncated after A856; GP64 signal peptide (AcNPV) at the N-terminus; TEV protease site between receptor and eGFP, then 10x His; Theoretical MW printed: monomer 124,784 Da; also called mGlu5-eGFP; not shown: eGFP, C-terminal, kept

Legend:
[1] = target: the molecule itself; experiment: non-reducing SDS-PAGE; SNAP-Red-labelled receptor extracted from HEK293 cells with detergent, non-purified material; non-reducing conditions; fluorescence scan of the gel
[2] = target: the molecule itself; experiment: non-reducing SDS-PAGE; purified receptor from Sf9 after SEC, Coomassie-blue stained gel; bands identified by mass spectrometry; reducing reagent raised the monomer band

Row | Protein | stoichiometry N [1] | stoichiometry N [2]
1 | B1 | 2 | –
2 | B2 | – | 2
